Measurements: publication PMC12717009
One block for each substance: values may come before it.

What was measured:
[1] = biological target: Nup116FG (amino acids 1–725), hydrogel particles (S. cerevisiae) (UniProt Q02630); experiment: FG-hydrogel permeation assay (confocal fluorescence); preformed NupFG hydrogel particles (3.3 µM total NupFG, 5% FMAL-labelled, TBS); Kap95–AF568 in 150 mM NaCl, 100 mM Tris pH 8 added
[2] = biological target: NPCs isolated from an Mlp1ppxPrA pNup84–mCherry strain expressing Kap95–GFP (S. cerevisiae (endogenous) | S. cerevisiae) (UniProt Q02455); experiment: immunofluorescence of isolated NPCs on coverglass (confocal); isolated NPCs kept in PBS at 4 °C for 0, 24, 48 and 72 h, put on poly-L-lysine coverglass; anti-eGFP–AF647 signal at spots co-localized with anti-mCherry–AF568; single-exponential fit of the loss
[3] = biological target: isolated native yeast (wild type) nuclear pore complex (S. cerevisiae (endogenous)) (UniProt Q02455); experiment: affinity purification with mass spectrometry; whole NPCs captured through Mlp1-ppx-PrA from cryogenically lysed yeast (20 mM HEPES–KOH pH 7.4, 50 mM potassium acetate, 20 mM NaCl, 2 mM MgCl2, Triton X-100, Tween-20), native elution by protease cleavage; label-free quantitation; +CP (after isolation) compared with −CP (72 h in buffer) NPCs

concentration of Kap95–AF568 in Nup116FG particles [1]: 1.58 µM
Substance: Kap95 labelled with Alexa Fluor 568 C5 maleimide (from UniProt Q06142 1-861) (natural protein)

half-life of dissociation (t1/2) [2]: 20.1 h
Substance: Kap95–GFP expressed under its native promoter (from UniProt Q06142 1-861) (natural protein)

stoichiometry N (Kap95 molecules per NPC) [3]: 15 to 20
Substance: endogenous Kap95 (from UniProt Q06142 1-861) (natural protein)
